In patent publication US20220033501A1 (SHANGHAI PHARMAEXPLORER, published 2022):
Numbering of substitutions follows the chain as printed. Each block holds one binder with its values, some of them ahead of it.

Key:
[1] = biological target: T1, human TIM-3 protein with hFc tag (hTIM-3-hFc protein) (human, UniProt Q8TDQ0 22-200); assay: ELISA, coated hTIM-3-hFc; antibody 66.667 nM
T1 construct: also called immunogen 1; human TIM-3 extracellular domain protein; not shown: human IgG Fc fragment (hFc) of the pCpC vector
T1 sequence: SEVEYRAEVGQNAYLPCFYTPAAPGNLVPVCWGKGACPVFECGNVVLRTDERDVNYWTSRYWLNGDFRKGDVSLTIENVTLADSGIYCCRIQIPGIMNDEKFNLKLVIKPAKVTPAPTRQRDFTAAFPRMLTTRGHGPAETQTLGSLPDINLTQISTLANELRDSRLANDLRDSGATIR
Excerpt: (§1) The amino acid sequence 22-200 of the extracellular domain of the human TIM-3 protein described in the step of Example 1 (as shown in SEQ ID NO. 71 in the sequence listing) was cloned into a pCpC vector having a human IgG Fc fragment (hFc), and transfected into HEK293 cells. The cell culture medium was collected, and purified to obtain the human TIM-3 protein with hFc tag (herein referred to as hTIM-3-hFc protein). The amino acid sequence 22-201 of the extracellular domain of the monkey TIM-3 protein (as shown in SEQ ID NO. 72 in the sequence listing) was cloned into a pCpC vector having a human IgG Fc fragment (hFc), and transfected into HEK293 cells. The cell culture medium was collected, and purified to obtain the monkey TIM-3 protein with hFc tag (herein referred to as cTIM-3-hFc protein). […] The cell culture medium was collected, and purified to obtain the murine TIM-3 protein with hFc tag (herein referred to as mTIM-3-hFc protein). Purified human, monkey, and mouse TIM-3 extracellular domain proteins (hTIM-3-hFc, cTIM-3-hFc, and mTIM-3-hFc) were diluted with PBS to a final concentration of 1.0 μg/ml and then added to a 96-well ELISA plate with 100 μl per well. The plate was sealed with plastic film and incubated overnight at 4° C. The plate was washed 4 times with the plate washing solution (PBS+0.01% Tween20) on the next day, and added with the blocking solution (PBS+0.01% Tween20+1% BSA) and sealed at room temperature for 1-2 hours. The blocking solution was poured out. 50-100 μl of the antibody sample to be tested was added to each well. The plate was incubated at 37° C. for 1-2 hours, and washed 2-3 times with plate washing solution (PBS+0. 01% Tween20). HRP (horseradish peroxidase) labeled secondary antibody was added. The plate was incubated at 37° C. for 1-2 hours, and washed 2-3 times with plate washing solution (PBS+0. 01% Tween20). […] of TMB substrate was added to each well. After incubated at room temperature for 15-30 minutes, the plate was added with […] stop solution (1.0N HCl) to each well. An ELISA plate reader (TiterMax 384plus, Molecular Device) was used to read the A450 nm value.

[2] = biological target: T2, monkey TIM-3 protein with hFc tag (cTIM-3-hFc protein) (monkey; human); assay: ELISA, coated cTIM-3-hFc; antibody 0 nM (blank)
T2 construct: Made in HEK293 cells; also called monkey TIM-3 extracellular domain protein; not shown: human IgG Fc fragment (hFc) of the pCpC vector
T2 chain: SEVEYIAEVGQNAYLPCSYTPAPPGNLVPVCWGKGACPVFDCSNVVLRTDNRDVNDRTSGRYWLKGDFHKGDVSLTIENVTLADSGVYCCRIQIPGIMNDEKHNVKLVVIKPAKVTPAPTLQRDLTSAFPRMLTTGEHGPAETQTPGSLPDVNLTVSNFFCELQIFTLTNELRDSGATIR
Excerpt: as §1

[3] = biological target: T1, human TIM-3 protein with hFc tag …; assay: ELISA, coated hTIM-3-hFc; antibody 0.0007 nM
Excerpt: as §1

[4] = biological target: T2, monkey TIM-3 protein with hFc tag …; assay: ELISA, coated cTIM-3-hFc; antibody 6.6667 nM
Excerpt: as §1

[5] = biological target: T3, human TIM-3 on CHOK1 stable cell line (CHOK1-hTIM-3) (human, UniProt Q8TDQ0 22-301); assay: FACS, CHOK1-hTIM-3 cells, 0.064 nM antibody
T3 sequence: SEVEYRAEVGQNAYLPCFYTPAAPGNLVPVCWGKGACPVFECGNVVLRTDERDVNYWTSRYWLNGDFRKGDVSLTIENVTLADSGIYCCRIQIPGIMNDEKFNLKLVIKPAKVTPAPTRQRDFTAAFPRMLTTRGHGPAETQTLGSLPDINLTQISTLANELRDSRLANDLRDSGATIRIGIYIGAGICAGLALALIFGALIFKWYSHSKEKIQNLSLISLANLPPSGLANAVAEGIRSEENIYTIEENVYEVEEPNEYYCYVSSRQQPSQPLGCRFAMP

[6] = biological target: T4, murine TIM-3 extracellular domain protein with hFc tag (mTIM-3-hFc) (mouse, UniProt Q8VIM0 29-191); assay: ELISA, coated mouse TIM-3 ECD protein, 0.0067 nM antibody
T4 construct: also called mouse TIM-3 extracellular domain protein; not shown: human IgG Fc fragment (hFc) of the pCpC vector
T4 chain: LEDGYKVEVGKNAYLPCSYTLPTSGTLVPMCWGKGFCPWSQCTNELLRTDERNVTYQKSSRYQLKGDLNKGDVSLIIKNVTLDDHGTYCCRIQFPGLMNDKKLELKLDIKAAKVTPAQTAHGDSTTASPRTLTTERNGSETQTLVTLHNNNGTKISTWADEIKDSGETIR

[7] = biological target: T3, human TIM-3 on CHOK1 stable cell line …; assay: FACS, CHOK1-hTIM-3 cells, 0 nM antibody
[8] = biological target: T4, murine TIM-3 extracellular domain …; assay: ELISA, coated mouse TIM-3 ECD protein, 0.0007 nM antibody
[9] = biological target: T4, murine TIM-3 extracellular domain …; assay: ELISA, coated mouse TIM-3 ECD protein, 6.6667 nM antibody
[10] = biological target: T5, human TIM-3 extracellular domain protein with hFc tag (hTIM-3-hFc) (human, UniProt Q8TDQ0 22-200); assay: ELISA, coated human TIM-3 ECD protein, 6.6667 nM antibody
T5 construct: not shown: human IgG Fc fragment (hFc) of the pCpC vector
T5 sequence: T1 sequence

B1: 34B6D8 (TIM-3 antibody purified from hybridoma, chimeric antibody of Example 2) (antibody, V domains shown)
VH: EVQLVESGGGLVQPGGSLRLSCAASGFTFSTYWMTWVRQAPGKRLEWVANIKQGGGDKYYVDSVKGRFTISTDNAKNSLYLQMNSLRAEDTAVYYCARGSNWFDPWGQGTLVTVSS
VL: EIVMTQSPATLSMSPGERATLSCRASQSVYDNLAWYQQKPGQAPRLLIYGASTRATGIPARFSGSGSGTEFTLTISSLQSEDFALYYCQQYTHWPITFGQGTRLEIK
notes: From hybridoma of Harbour H2L2 transgenic mice: human variable regions, rat constant regions
OD450 [1]: 3.42
OD450 [2]: 0.58
OD450 [3]: 0.15
OD450 [4]: 3.55

B5: 18D2H2 fully human TIM-3 antibody (human IgG4, kappa) (antibody, V domains shown)
VH: B1 VH with G10D, K43R, R44G, G54D, G56S, D57A, I70L, T72R, N74D, P105Y
VL: ETVMTQSPATLSVSPGERATLSCRANQNVYSNLAWYQQKPGQAPRLLIYDASTRATGFPARFSGSGSGTEFTLTISSLQSEDFAVYYCQQYNNWPLTFGGGTKVEIK
Mean fluorescence intensity [5]: 32.9
OD450 [6]: 0.22
Mean fluorescence intensity [7]: 2.8
OD450 [8]: 0.21
OD450 [9]: 0.31
OD450 [10]: 2.61

B9: 18D2H2 (TIM-3 antibody purified from hybridoma, chimeric antibody of Example 2) (antibody, V domains shown)
VH: B1 VH with G10D, K43R, R44G, G54D, G56S, D57A, I70L, T72R, N74D, P105Y
VL: B5 VL
notes: as for B1
OD450 [1]: 2.93
OD450 [2]: 0.55
OD450 [3]: 0.12
OD450 [4]: 3.34

B11: 7A4F10 fully human TIM-3 antibody (human IgG4, kappa) (antibody, V domains shown)
VH: EVQLLESGGGLVQPGGSLRLSCAASGFTFRTHLISWVRQAPGKGLEWVAAITGSGGSTYYADSVKGRFIISRDNSKNTLFLQMNSLRAEDTAVYYCAKDGGSGSYDDFWGQGTLVTVSS
VL: ETVLTQSPVTLSLSPGERATLSCRASQSVGSYLAWYQQKPGQAPRLLIYDASNRATGIPARFSGSGSGTDFTLTISSLEPEDFAVYYCQQRSNWPPTFGQGTKVEIK
Mean fluorescence intensity [5]: 28.8
OD450 [6]: 0.23
Mean fluorescence intensity [7]: 2.8
OD450 [8]: 0.22
OD450 [9]: 0.36
OD450 [10]: 3.01

B12: 7A4F10 (TIM-3 antibody purified from hybridoma, chimeric antibody of Example 2) (antibody, V domains shown)
VH: B11 VH
VL: B11 VL
notes: as for B1
OD450 [1]: 3.08
OD450 [2]: 0.54
OD450 [3]: 0.12
OD450 [4]: 3.12

Results, then the binder that gave them:

Mean fluorescence intensity [5]: 20.5
OD450 [6]: 0.22
Mean fluorescence intensity [7]: 2.9
OD450 [8]: 0.21
OD450 [9]: 0.38
OD450 [10]: 2.86
B2: 215A8F2 fully human TIM-3 antibody (human IgG4, kappa) (antibody, V domains shown)
VH: QVQLQQWGAGLLKPSETLSLTCTVYGGSFSGYYWNWIRQPPGKGLEWLGEINHSGSTNYNPSLKRRVTISVDTSKNQFSLKLSSVTAADTAVYYCARVYYYGPFDFWGQGTLVTVSS
VL: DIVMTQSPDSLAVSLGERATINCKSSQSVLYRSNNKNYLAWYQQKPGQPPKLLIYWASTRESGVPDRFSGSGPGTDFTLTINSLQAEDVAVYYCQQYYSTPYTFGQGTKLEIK

OD450 [1]: 3.17
OD450 [2]: 0.57
OD450 [3]: 0.14
OD450 [4]: 3.45
B3: 215A8F2 (TIM-3 antibody purified from hybridoma, chimeric antibody of Example 2) (antibody, V domains shown)
VH: B2 VH
VL: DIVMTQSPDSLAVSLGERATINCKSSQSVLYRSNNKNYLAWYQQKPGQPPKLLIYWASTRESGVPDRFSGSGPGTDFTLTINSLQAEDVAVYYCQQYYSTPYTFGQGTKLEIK
notes: as for B1

Mean fluorescence intensity [5]: 23.7
OD450 [6]: 0.23
Mean fluorescence intensity [7]: 2.9
OD450 [8]: 0.23
OD450 [9]: 0.54
OD450 [10]: 2.91
B4: 57F4E5 fully human TIM-3 antibody (human IgG4, kappa) (antibody, V domains shown)
VH: EVQLVESGGGLVQPGGSLRLSCAASGFTFSSYWMSWVRQAPGKGLEWVANIKQDGSEKYYVDSVKGRFTISRDSAKNSLYLQMNSLRAEDTAMYFCARDSNFFDYWGQGTLVTVSS
VL: B5 VL with N26S, N28S, Y30S, Q38R, D50F, A51S, F58I

OD450 [1]: 3.26
OD450 [2]: 0.56
OD450 [3]: 0.19
OD450 [4]: 3.48
B6: 57F4E5 (TIM-3 antibody purified from hybridoma, chimeric antibody of Example 2) (antibody, V domains shown)
VH: B4 VH
VL: B5 VL with N26S, N28S, Y30S, Q38R, D50F, A51S, F58I
notes: as for B1

OD450 [1]: 3.39
OD450 [2]: 0.59
OD450 [3]: 0.16
OD450 [4]: 3.5
B7: 39E5H1 (TIM-3 antibody purified from hybridoma, chimeric antibody of Example 2) (antibody, V domains shown)
VH: B1 VH with T31S, T35S, R44G, Q53R, G56S, D57E, K58R, T72G, L79V
VL: B1 VL with I2T, T10I, M13V, D31S, P40L, G50D, L85V, T92N, H93N
notes: as for B1

Mean fluorescence intensity [5]: 34.5
OD450 [6]: 0.22
Mean fluorescence intensity [7]: 2.8
OD450 [8]: 0.21
OD450 [9]: 0.36
OD450 [10]: 2.81
B8: 134H3G6 fully human TIM-3 antibody (human IgG4, kappa) (antibody, V domains shown)
VH: EVQLVESGGGLVQPGGSLRLSCAASGFTFSNSWMTWVRQAPGKGLEWVANIKQAGTEKYYVDSVKGRFTISRDNAKNSLYLQMNSLRAEDTAVYYCNSGSNYFDYWGQGTLVTVSS
VL: B5 VL with T2I, N26R, V29F, D50G, F58I

OD450 [1]: 3.15
OD450 [2]: 0.55
OD450 [3]: 0.13
OD450 [4]: 3.02
B10: 134H3G6 (TIM-3 antibody purified from hybridoma, chimeric antibody of Example 2) (antibody, V domains shown)
VH: B8 VH
VL: B5 VL with T2I, N26R, V29F, D50G, F58I
notes: as for B1
